Experimental data: patent publication US7923230

Tests used:
Amyloid beta (1-42) = test: cell-based or functional assay
Amyloid beta (1-40) = test: SPR (BIAcore); SLF-CR pre-incubated with FKBP passed over immobilized Aβ(1-40); SLF-CR alone gave ~140 RUs; ternary FKBP/drug/Aβ complex
Amyloid beta (1-40), sequence (peptide, as listed by the source): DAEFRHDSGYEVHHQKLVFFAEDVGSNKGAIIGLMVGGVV

Amyloid beta (1-42), sequence (peptide, as listed by the source): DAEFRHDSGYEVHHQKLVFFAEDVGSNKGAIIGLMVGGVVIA

Substance | IC50 in thioflavin T aggregation assay (drug concentration, FKBP 1 uM) (Amyloid beta (1-42)) | SPR response (Amyloid beta (1-40))
FKBP12 with the bifunctional compound SLF-Benz-CR (from UniProt P62942 2-108) (enzyme) | 50 nM | –
FKBP12 pre-incubated with the bifunctional compound SLF-CR (SLF-Congo red) (from UniProt P62942 2-108) (enzyme) | – | 230 RU
